Measurements: the supplement of paper PMC10567573

B1: DYRK1B (parent)
chain: KKVLNHGYDDDNHDYIVRSGERWL
B2: ETS1 (parent)
chain: FSEPSFITESYQTLHPISSEELLS

Variants of: B1
Experiment: protein stability index of a GFP-peptide fusion (GPS, HEK-293T) (PSI 1-6); higher = more stable
Conditions: c terminus: a fixed tail appended
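Also: lentivirally expressed fusions sorted by FACS into six bins by GFP to DsRed ratio, PSI derived from sequencing read proportions per bin multiplied by bin number.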

Protein stability index of substitutions, site by site:
V3: H 3.12 | S 3.47 | F 2.61 | T 3 | Q 3.08 | R 2.83 | E 3.48 | N 3.15 | Y 2.73 | M 3.04 | G 3.33 | C 2.41 | P 2.94 | A 3.45 | D 3.74 | W 2.05 | K 3.08 | L 2.88 | I 2.73
K2: H 3.19 | M 2.86 | A 3.33 | W 2.12 | D 4.31 | N 3.79 | F 2.52 | Q 3.32 | S 2.97 | P 3.46 | T 3.53 | Y 2.52 | I 2.23 | G 3.6 | V 2.86 | C 1.9 | E 3.7 | L 2.12 | R 3.13
H6: F 2.4 | C 2.38 | L 2.51 | P 3.27 | A 2.81 | M 2.34 | K 3.52 | D 3.48 | Q 3.32 | I 3.01 | N 3.38 | G 3.26 | E 3.44
K1: W 2.07 | A 3.11 | L 2.48 | C 2.38 | G 3.5 | R 2.43 | T 2.92 | F 2.41 | V 2.29 | P 3.43 | N 2.95 | M 3.09 | H 3.39 | D 3.62 | E 3.24 | I 2.28 | Y 2.38 | S 3.23 | Q 2.74
N5: F 2.7 | V 3.22 | T 2.57 | E 3.46 | L 3.01 | P 3.39 | S 2.67 | G 3.42 | R 2.92 | K 2.97 | M 2.8 | D 3.41 | Q 3.01 | Y 2.33 | I 2.82 | H 2.89 | C 2.84 | A 2.88 | W 2.72
L4: C 3.33 | F 2.59 | Q 4.12 | S 3.27 | W 3.1 | Y 2.99 | R 3.38 | H 3.27 | N 3.76 | V 2.58 | P 3.36 | I 3.33 | T 3.86 | D 4.28 | M 2.88 | K 3.68 | E 3.56 | G 3.87 | A 3.68

Variants of: B2
Experiment: as above
Conditions: c terminus: a fixed tail appended

Protein stability index of substitutions, site by site:
S5: K 2.14 | N 2.34 | R 2.63 | A 2.07 | C 1.69 | I 1.48 | E 2.35 | V 1.91
F6: T 4.34 | P 4.26 | N 4.57 | C 3.36 | A 4 | V 3.23 | K 3.58 | S 4.2 | W 2.27 | D 4.8
E21: R 1.96 | Y 1.49 | K 1.84 | S 1.52 | A 1.53 | M 2.1 | N 1.85 | C 1.79
T13: C 1.67 | V 2.21 | K 1.93 | N 1.68 | Y 1.93 | I 1.93 | R 1.61 | A 2.16 | S 2.35 | P 2.11 | L 1.99 | F 1.53 | E 2.07 | G 1.9
Y11: W 1.34 | F 1.73 | D 2.96 | M 2.02 | I 2.04 | Q 2.57 | L 1.71
L14: K 2.19 | D 2.44 | S 2.44 | N 2.08 | V 2.09 | G 2.19 | P 2.1 | M 1.88 | A 2.08 | R 2.07 | T 2.5 | H 2.35 | E 2.33 | Q 2.48 | F 1.74
S19: Y 1.7 | R 2.24 | K 1.72 | F 1.88 | E 2.46 | I 2.13
E9: T 1.94 | H 2 | N 1.62 | P 1.75 | Y 1.77 | A 1.76 | V 2.05
L22: I 2.2 | C 1.97 | W 1.62 | D 2.16 | N 2.33 | Y 2.04 | H 2.71 | P 2.42 | K 2.55 | R 2.19 | G 2.03 | A 2.04 | T 1.97 | M 2 | E 2.67 | Q 2.19 | F 2.01
S2: A 2.42 | V 2.42 | G 2.63
T8: M 1.78 | Y 2.17 | H 2.04 | F 1.95 | D 3.47 | Q 2.59 | A 2.29 | I 1.98 | P 3.5 | C 2.22 | R 2.12 | N 2.91 | S 2.38
S10: P 2.62 | E 3 | G 1.72 | H 2.06 | T 2.15 | I 1.86 | C 1.53 | N 1.99 | W 1.5
E3: A 2.37 | Q 1.7 | P 2.9 | D 1.74 | W 1.5 | V 2.5 | H 2.17 | K 2.05 | T 2.35
P4: A 2.21 | M 2.19 | L 2.03 | N 2.99 | I 1.54 | S 2.39 | Y 2.2 | D 3.65 | E 3.19 | R 2.13 | F 1.92
S18: R 2.19 | T 1.97 | I 1.83 | Q 2.3 | M 2 | N 2.04 | W 1.38 | F 1.79 | A 1.93 | C 2.2 | H 2.35
Q12: W 2.42 | C 2.24 | L 2.45 | V 1.62 | E 2.27 | M 1.95 | Y 1.56 | G 1.84 | T 1.59 | I 1.58 | K 1.85 | F 1.98 | N 2.26
E20: N 1.7 | Q 2.12 | D 1.63 | H 2.14 | A 1.92 | W 1.61 | C 1.8 | P 1.73 | S 2.11 | G 1.62 | V 2.04
S24: G 1.86 | E 2.54 | F 1.65 | P 2.04 | Y 1.79 | A 2.02 | L 1.69 | W 1.56
H15: A 2.27 | T 2.38 | L 1.99 | M 1.96 | C 2.17 | G 1.75 | N 1.71 | Q 2.29 | D 2.48
F1: W 3.67 | D 4.47 | I 4.03 | P 4.23 | T 4.51
I7: H 2.42 | M 2.31 | Q 3.83 | W 2.33 | Y 2.82 | F 1.68 | P 3.09 | K 3.73 | E 4.03 | C 2.03
L23: S 2.07 | C 1.97 | F 2.38 | R 2.16 | T 2.29 | E 2.44 | A 2.57 | K 2.83 | Y 1.78 | G 1.98
I17: E 2.39 | Q 2.31 | V 2.14 | T 2.78 | M 1.78 | Y 2.03 | S 2.14 | C 1.74 | K 2.36
P16: C 2.07 | K 1.88 | I 1.6
